The results in this text go back to the supplement of paper PMC9112550, “Optimization of the antimicrobial peptide Bac7 by deep mutational scanning” (BMC Biology, 2022).

The data set deals with Escherichia coli TOP10. The data set is described as follows: shrunken log2 fold change of peptide-encoding DNA abundance (4.5 h post-induction vs induction); higher = less antimicrobial activity (less host growth inhibition). Particulars: time post-induction: 4.5 h; library: site-saturation at positions 5, 18, 19, 20.
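Further: peptides expressed intracellularly from a pBAD plasmid library in pooled LB shake-flask culture, induced with 0.3% L-arabinose, DNA abundance read by NGS, three biological replicates, DESeq2 with apeglm shrinkage.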

As to RRIRVRPPRLPRPRPRPCQFPRP, the “shrunken log2 fold change” value is 0.143.

Turning to RRIRPRPPRLPRPRPRPSPAPRP, the “shrunken log2 fold change” value was 0.209.

Regarding RRIRYRPPRLPRPRPRPQEDPRP, the “shrunken log2 fold change” value is -0.135.

Consider RRIRFRPPRLPRPRPRPSECPRP, for which the “shrunken log2 fold change” value is -0.472.

As to RRIRKRPPRLPRPRPRPRRCPRP, the “shrunken log2 fold change” value came out at 0.444.

As to RRIRQRPPRLPRPRPRPEAFPRP, the “shrunken log2 fold change” value worked out at 0.127.

Turning to RRIRWRPPRLPRPRPRPHYKPRP, the “shrunken log2 fold change” value was -0.631.

In the case of RRIRDRPPRLPRPRPRPPSAPRP, the “shrunken log2 fold change” value worked out at 0.506.

Consider RRIRDRPPRLPRPRPRPFAKPRP, for which the “shrunken log2 fold change” value is -0.0729.

Consider RRIRRRPPRLPRPRPRPERQPRP, for which the “shrunken log2 fold change” value was 0.522.

Turning to RRIRKRPPRLPRPRPRPVDTPRP, the “shrunken log2 fold change” value amounted to 0.0388.

Take RRIRERPPRLPRPRPRPCTQPRP: the “shrunken log2 fold change” value is -0.00926.

Take RRIRWRPPRLPRPRPRPSTRPRP: the “shrunken log2 fold change” value was 0.00128.

On to RRIRLRPPRLPRPRPRPPNWPRP, for which the “shrunken log2 fold change” value worked out at 0.377.

As for RRIRCRPPRLPRPRPRPMWIPRP, the “shrunken log2 fold change” value was determined as 0.085.

As for RRIRHRPPRLPRPRPRPDTTPRP, the “shrunken log2 fold change” value is -0.226.

RRIRNRPPRLPRPRPRPGMWPRP: the “shrunken log2 fold change” value is 0.397.

In the case of RRIRYRPPRLPRPRPRPPYLPRP, the “shrunken log2 fold change” value is -0.985.

Take RRIRRRPPRLPRPRPRPLTAPRP: the “shrunken log2 fold change” value came to 0.337.

Regarding RRIRYRPPRLPRPRPRPMPLPRP, the “shrunken log2 fold change” value was -0.398.

Turning to RRIRSRPPRLPRPRPRPVVGPRP, the “shrunken log2 fold change” value came out at 0.267.

Take RRIRNRPPRLPRPRPRPKHRPRP: the “shrunken log2 fold change” value stood at 0.0319.

In the case of RRIRARPPRLPRPRPRPFKMPRP, the “shrunken log2 fold change” value is -0.253.

As to RRIRFRPPRLPRPRPRPDILPRP, the “shrunken log2 fold change” value is -0.119.

Take RRIRWRPPRLPRPRPRPNCHPRP: the “shrunken log2 fold change” value amounted to 0.0398.

RRIRCRPPRLPRPRPRPVAWPRP: the “shrunken log2 fold change” value is 0.163.

In the case of RRIRFRPPRLPRPRPRPQWPPRP, the “shrunken log2 fold change” value stood at 0.192.

In the case of RRIRTRPPRLPRPRPRPIQNPRP, the “shrunken log2 fold change” value is -0.147.

For RRIRLRPPRLPRPRPRPADKPRP, the “shrunken log2 fold change” value worked out at 0.122.

Consider RRIRTRPPRLPRPRPRPMYKPRP, for which the “shrunken log2 fold change” value was -0.0126.

Regarding RRIRMRPPRLPRPRPRPGMQPRP, the “shrunken log2 fold change” value is -0.00144.

With RRIRVRPPRLPRPRPRPQEHPRP, the “shrunken log2 fold change” value was -0.251.

For the sequence RRIRLRPPRLPRPRPRPMLFPRP, the “shrunken log2 fold change” value was -0.136.

Regarding RRIRVRPPRLPRPRPRPNFLPRP, the “shrunken log2 fold change” value is -0.0134.

As to RRIRTRPPRLPRPRPRPMLEPRP, the “shrunken log2 fold change” value worked out at 0.018.

For the sequence RRIRCRPPRLPRPRPRPEMNPRP, the “shrunken log2 fold change” value is -0.036.

On to RRIRVRPPRLPRPRPRPEQIPRP, for which the “shrunken log2 fold change” value was -0.0137.

With RRIRQRPPRLPRPRPRPRPRPRP, the “shrunken log2 fold change” value stood at 0.414.

Consider RRIRTRPPRLPRPRPRPNYGPRP, for which the “shrunken log2 fold change” value is -0.363.

On to RRIRRRPPRLPRPRPRPIYFPRP, for which the “shrunken log2 fold change” value worked out at 0.124.

As for RRIRNRPPRLPRPRPRPLYVPRP, the “shrunken log2 fold change” value was -0.641.

In the case of RRIRMRPPRLPRPRPRPFPEPRP, the “shrunken log2 fold change” value amounted to 0.562.

Turning to RRIRHRPPRLPRPRPRPPGAPRP, the “shrunken log2 fold change” value came to 0.935.

With RRIRVRPPRLPRPRPRPSMEPRP, the “shrunken log2 fold change” value was -0.159.

For the sequence RRIRERPPRLPRPRPRPENSPRP, the “shrunken log2 fold change” value was -0.0336.

Regarding RRIRHRPPRLPRPRPRPGMPPRP, the “shrunken log2 fold change” value is 0.47.

On to RRIRTRPPRLPRPRPRPPWHPRP, for which the “shrunken log2 fold change” value is 0.118.

In the case of RRIRIRPPRLPRPRPRPYWFPRP, the “shrunken log2 fold change” value is -0.112.

On to RRIRFRPPRLPRPRPRPQWMPRP, for which the “shrunken log2 fold change” value was -0.414.

For RRIRKRPPRLPRPRPRPFNDPRP, the “shrunken log2 fold change” value is -0.135.
